± gives the standard deviation.

The text below walks through data of the supplement of paper PMC10567573.

The data set in a line: protein stability index of a GFP-peptide fusion (GPS, HEK-293T) (PSI 1-6); higher = more stable.
The mark [1] stands for this setting: treatment: DMSO, c terminus: a fixed tail appended.
The mark [2] stands for this setting: treatment: MLN4924 1 uM, 8 h, c terminus: a fixed tail appended.
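Further: 24-mer peptide tiles fused after GFP, lentivirally expressed, FACS-sorted into six equal bins by GFP/DsRed ratio, decoded by Illumina sequencing, PSI is the read-weighted mean bin number.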

In the case of VDITPYLDQLDESLRDKVLQLQKG [INTS3], the protein stability index by setting is: under setting [1], 3.79 ± 0.071; under setting [2], 4.06 ± 0.1.

VDREKGLSAEPGWQAKREEEEEEE [CHGA]: the protein stability index amounted to 5.36 ± 0.48 under setting [1] and 5.7 ± 0.18 under setting [2].

On to VDRNTRPGPQDPEESASRQRFGEA [ELOA2], for which the protein stability index is 4.92 ± 0.25 under setting [1] and 5.14 ± 0.14 under setting [2].

On to VEADINGLRRVLDELTLARTDLEM [KRT15], for which the protein stability index is, setting by setting: under setting [1], 3.29 ± 0.27; under setting [2], 3.33 ± 0.39.

Regarding VEATVKPELTAALRDIRAQYESIA [PRPH], the protein stability index by setting is: under setting [1], 3.48 ± 0.16; under setting [2], 3.4 ± 0.22.

With VESVFFGGGTPSLASPHTVAAVLE [RSAD1], the protein stability index is 2.97 ± 0.18 under setting [1] and 3.02 ± 0.47 under setting [2].

As for VFKCVKRLDGCIYAIKRSKKPLAG [WEE1], the protein stability index by setting is: under setting [1], 2.23 ± 0.27; under setting [2], 2.28 ± 0.15.

For the sequence VGGFDGTTYLKTIEVFDPDANTWR [KLHL20], the protein stability index is, setting by setting: under setting [1], 2.91 ± 0.12; under setting [2], 2.92 ± 0.32.

Regarding VGYQSQNISCFFRLVDRDSVWGYD [MYORG], the protein stability index amounted to 2.34 ± 0.85 under setting [1] and 2.34 ± 0.17 under setting [2].

Consider VHRRGEYNVYSTFQSHEPEFDYLK [PPP2R2B], for which the protein stability index worked out at 2.97 ± 0.11 under setting [1] and 2.88 ± 0.17 under setting [2].

With VHTKEQILELLVLEQFLAILPKEL [ZNF396], the protein stability index amounted to 3.22 ± 0.74 under setting [1] and 2.43 ± 0.63 under setting [2].

For VIAYDHSRVLLSAIEGIPGSDYVN [PTPRD], the protein stability index by setting is: under setting [1], 1.89 ± 0.5; under setting [2], 1.79 ± 0.28.

Take VILFSSAVYFAEAEEAESHFSSIP [KCNA1]: the protein stability index is, setting by setting: under setting [1], 2.37 ± 0.5; under setting [2], 2.35 ± 0.29.

As to VIPECAHGGLYKPVQCHPSTGYCW [SMOC2], the protein stability index was found to be 2.38 ± 0.56 under setting [1] and 2.77 ± 0.9 under setting [2].

With VISCTIFIVGMVGNATLLRIIYQN [EDNRA], the protein stability index is, setting by setting: under setting [1], 3.11 ± 0.14; under setting [2], 2.29 ± 0.12.

Take VIVKEGGLKLIQIQDNGTGIRKED [MLH1]: the protein stability index reads like this: under setting [1], 3.44 ± 0.33; under setting [2], 3.48 ± 0.41.

On to VKEKGSTLDLSDLEAEKLVMFQRR [SCD], for which the protein stability index came out at 4.06 ± 0.31 under setting [1] and 3.97 ± 0.31 under setting [2].

In turn, VKLMMSTLPKSLSLPTTAPSNSSS [MYBL2] yielded a protein stability index under setting [1] of 3.24 ± 0.18 and a protein stability index under setting [2] of 3.33 ± 0.24.

VKQEIAEMRIPALNAYMKSLLSLP [NCF4]: the protein stability index is, setting by setting: under setting [1], 2.27 ± 0.34; under setting [2], 2.36 ± 0.28.

Take VLAAKERRCGELKRKLGLTALVGL [TPD52L3]: the protein stability index by setting is: under setting [1], 2.44 ± 0.24; under setting [2], 2.07 ± 0.23.

As to VLKRQRKRRVALSPVTENSTSLSF [MYBL2], the protein stability index amounted to 3.59 ± 0.22 under setting [1] and 3.5 ± 0.14 under setting [2].

With VLQDGCVFEKAGVSISVVHGNLSE [CPOX], the protein stability index by setting is: under setting [1], 3.21 ± 0.32; under setting [2], 3.05 ± 0.53.

Consider VLSSEQEFQMFPKSRLSSVSVTYC [ETS2], for which the protein stability index under setting [1] stood at 2.21 ± 0.28 and the protein stability index under setting [2] is 2.23 ± 0.3.

For VMLGAGGVGKSAMTMQFISHRFPE [RIT1], the protein stability index stood at 2.33 ± 0.34 under setting [1] and 2.12 ± 0.34 under setting [2].

For VMYRIGCLRDDVVFFIYLYQRWIY [CLPTM1], the protein stability index by setting is: under setting [1], 2.93 ± 0.66; under setting [2], 2.71 ± 0.32.

Sequence VNPTGNLPMWSNQTWNNSTWSNQT [NANOGP8] displayed a protein stability index under setting [1] of 2.75 ± 0.2 and a protein stability index under setting [2] of 2.98 ± 0.35.

Turning to VPGGAGPCATVSVFPGARLLTIGD [CARM1], the protein stability index worked out at 2.73 ± 0.43 under setting [1] and 2.53 ± 0.48 under setting [2].

Consider VPQPRPPGARTRAGAARVARWRRL [FBXO33], for which the protein stability index by setting is: under setting [1], 4.39 ± 0.42; under setting [2], 4.76 ± 0.21.

Take VPSEWLSSVYKQQWFAMLRAEQDS [GMCL1]: the protein stability index under setting [1] worked out at 2.47 ± 0.19 and the protein stability index under setting [2] is 2.43 ± 0.17.

In the case of VQEDLEAEFQSLFSLLEELKEGML [FSD1], the protein stability index is, setting by setting: under setting [1], 2.99 ± 0.57; under setting [2], 3.01 ± 0.53.

In the case of VQSIELQRPRFITSGGSNIIYVAS [VPS39], the protein stability index is, setting by setting: under setting [1], 2.35 ± 0.44; under setting [2], 2 ± 0.22.

As to VRIQNPSLRENDFIEIELDRQELT [ANKRD40], the protein stability index under setting [1] came out at 3.04 ± 0.41 and the protein stability index under setting [2] is 3.26 ± 0.44.

As for VRQPILQYRWDMMHRLGEPQARMR [BEX1], the protein stability index under setting [1] was found to be 2.95 ± 0.21 and the protein stability index under setting [2] turned out to be 3.22 ± 0.29.

As to VRRGHSHLAPSEAKAADSPTRNDL, the protein stability index worked out at 4.96 ± 0.16 under setting [1] and 4.9 ± 0.2 under setting [2].

As for VSISISGSSRPCLDFLQEVTRQPR [ASB7], the protein stability index runs as follows: under setting [1], 1.93 ± 0.48; under setting [2], 2.05 ± 0.3.

Regarding VSMEIFFKAWLHNSGTDQEQIHLL [M1AP], the protein stability index is 2.41 ± 0.52 under setting [1] and 2.21 ± 0.27 under setting [2].

Turning to VSVESQQVQQVEVEATVKPELTAA [PRPH], the protein stability index under setting [1] is 5.23 ± 0.089 and the protein stability index under setting [2] was found to be 5.25 ± 0.12.

Regarding VTATDQKVEKMLISSIKEKYPSHS [IMPA1], the protein stability index by setting is: under setting [1], 3.94 ± 0.14; under setting [2], 4.27 ± 0.23.

On to VTGPDNGVRESETEQGFGEDLEDL [NFE2L1], for which the protein stability index is, setting by setting: under setting [1], 5.79 ± 0.27; under setting [2], 5.62 ± 0.35.

As for VTIKHVACGDFFTACLTDRGIIMT [NEK8], the protein stability index was determined as 2.96 ± 0.5 under setting [1] and 2.63 ± 0.35 under setting [2].

Take VTLALLGSYTVQSELGDYDPDECG [EPB41L3]: the protein stability index was 2.46 ± 0.4 under setting [1] and 2.62 ± 0.27 under setting [2].

As to VVAVHVVLALFVYVAWNEGSRQWR [VMA21], the protein stability index is 2.84 ± 0.3 under setting [1] and 2.88 ± 0.16 under setting [2].

The sequence VWKHGITPPLKNVRKKRFRKTQKK [TAF7L] gave a protein stability index under setting [1] of 3.46 ± 0.16 and a protein stability index under setting [2] of 3.86 ± 0.17.

In the case of VYSDLCEAAEAVRPEERKTCRNPA [ADAMTSL2], the protein stability index is 4.83 ± 0.21 under setting [1] and 4.5 ± 0.49 under setting [2].

WAMRRSYEAIAKHNQVEAAWLEGR [TRIM35]: the protein stability index turned out to be 2.37 ± 0.12 under setting [1] and 2.73 ± 0.3 under setting [2].

As for WDQVSRLHEVLTEVVPIHGRGNFP [TENT5C], the protein stability index is, setting by setting: under setting [1], 2.59 ± 0.28; under setting [2], 2.67 ± 0.17.

For WELREKQQLAAEPVPTGFFNMWGF [WDR41], the protein stability index by setting is: under setting [1], 2.01 ± 0.11; under setting [2], 2.37 ± 0.23.

On to WEYSSSIQNSDNDLPVVQGSSSFS [TRIM29], for which the protein stability index runs as follows: under setting [1], 4.61 ± 0.25; under setting [2], 4.42 ± 0.36.

In the case of WIEHSKLREINFKIVEFNPMVLKG [GLT8D2], the protein stability index by setting is: under setting [1], 2.16 ± 0.1; under setting [2], 2.35 ± 0.14.

In the case of WLSANPCPHCGDRTFYDPEPILCP [PRAME], the protein stability index under setting [1] came out at 2.45 ± 0.19 and the protein stability index under setting [2] worked out at 2.69 ± 0.45.

WQPAVPLMHMLHLSGALDFPRQS [SPATS1] came in with a protein stability index (treatment: DMSO, c terminus: native) of 2.9 ± 0.38 and a protein stability index (treatment: MLN4924 1 uM, 8 h, c terminus: native) of 2.73 ± 0.48.

Consider WTNQQKLYSRTGDIVEFVCKSGYH [CFHR2], for which the protein stability index came to 2.46 ± 0.35 under setting [1] and 2.5 ± 0.33 under setting [2].

For the sequence WTRNPDDITQEEYGEFYKSLTNDW [HSP90AB1], the protein stability index amounted to 3.81 ± 0.15 under setting [1] and 3.82 ± 0.41 under setting [2].

Turning to WVKGSVPPPLDQYVKFDAVSGDYY [CLPTM1], the protein stability index is, setting by setting: under setting [1], 2.79 ± 0.24; under setting [2], 2.72 ± 0.28.

WYTKSFGHLCAAEVVKIRDSFSNQ [DLC1] came in with a protein stability index under setting [1] of 2.56 ± 0.78 and a protein stability index under setting [2] of 2.09 ± 0.49.

Regarding YAFVGDYSGQITLLKLEQNTCSVI [WDFY1], the protein stability index was found to be 2.94 ± 0.65 under setting [1] and 2.72 ± 0.58 under setting [2].

As to YAMKYMNKQKCVERNEVRNVFKEL [STK32A], the protein stability index by setting is: under setting [1], 2.07 ± 0.41; under setting [2], 2.24 ± 0.62.

YCKNESGSRSNGMWAHSMTVQDYQ [ATE1]: the protein stability index by setting is: under setting [1], 2.35 ± 0.45; under setting [2], 2.7 ± 0.37.

For YDTTLALGHAAAFSDDCDLPSAQD [GLT8D2], the protein stability index runs as follows: under setting [1], 5.33 ± 0.2; under setting [2], 5.31 ± 0.3.

For YFITLGTEIAEQEGNQKGEQATSL [KCNA1], the protein stability index is, setting by setting: under setting [1], 3.79 ± 0.1; under setting [2], 3.84 ± 0.24.

Take YFKEAELKDLLLQVGRGLRYIHSM [WEE1]: the protein stability index under setting [1] amounted to 2.48 ± 0.8 and the protein stability index under setting [2] was found to be 2.15 ± 0.34.

In the case of YFTDTDELQLEAANETYENNFDNL [ATF6], the protein stability index is, setting by setting: under setting [1], 4.66 ± 0.14; under setting [2], 4.337 ± 0.033.

Regarding YGGGLGGGFGGGFAGGFVDFGACD [KRT13], the protein stability index under setting [1] came out at 2.39 ± 0.46 and the protein stability index under setting [2] came out at 2.14 ± 0.67.

In the case of YGVKSPLSLIARFSPIAIDGMSGL [ELAVL3], the protein stability index by setting is: under setting [1], 2.41 ± 0.091; under setting [2], 2.35 ± 0.33.

For the sequence YIGSIMKGGAVAADGRIEPGDMLL [DVL3], the protein stability index under setting [1] was found to be 2.34 ± 0.22 and the protein stability index under setting [2] came out at 2.57 ± 0.43.

With YILECDHHGGDYKHWREWGSHAQT [CRYBA1], the protein stability index runs as follows: under setting [1], 2.32 ± 0.15; under setting [2], 2.43 ± 0.51.

Turning to YIRAPPRSKIYLRFLDYEMQNSNE [NETO1], the protein stability index under setting [1] stood at 2.28 ± 0.16 and the protein stability index under setting [2] is 2.44 ± 0.22.

As to YKGRQLQGCPGAKKHEFLTSVLDA [SMOC2], the protein stability index is 3.39 ± 0.42 under setting [1] and 3.73 ± 0.73 under setting [2].

Regarding YKILLDVKTRLEQEIATYRRLLEG [KRT17], the protein stability index stood at 2.32 ± 0.14 under setting [1] and 2.39 ± 0.37 under setting [2].

Take YNENVYTEDGKLDIWSKSNYQVFQ [MED27]: the protein stability index is, setting by setting: under setting [1], 2.5 ± 0.42; under setting [2], 2.97 ± 0.4.

YNIPHGPVVGSTRRLYEKKIFEYE [EMD]: the protein stability index is, setting by setting: under setting [1], 3.18 ± 0.29; under setting [2], 3.23 ± 0.14.

With YQQLEDDKLSQKSSSSKLSRSPLK [EPB41L3], the protein stability index amounted to 4.94 ± 0.6 under setting [1] and 5.04 ± 0.28 under setting [2].
